{
  "source": "patent US20220251222A1",
  "about": "(Johns Hopkins, published 2022)",
  "binders": {"B1": {"name": "10H2, recombinant monoclonal hIgG1 (anti-IL-8RB) (antibody, V domains shown)", "VH": "EVQLVETGGRLVQPKGSLKLSCAVSGITFKTNAMNWVRQAPGKGLEWVARIRTKSYNYATYYADSVKDRFTISRDDSQSILYLQMNNLKTEDTAMYHCVREGRWGQGTLVTVSA", "VL": "QAVVTQESALTTSPGETVTLTCRSSTGAVTTSNYANWVQEKPDHLFTGLIGGTNNRPPGVPARFSGSLIGDKAALTITGAQIEDEAIYFCALWYSNHLVFGGGTKLTVL", "notes": "also called anti-IL-8RB antibody"}},
  "key": {"[1]": {"biological_target": "T1, IL-6Rα expressed on lentivirally transduced HEK 293T cells (UniProt P08887 20-468, limits assumed)", "T1 construct": "whole, on cells; also called IL-6Rα^+ cells; IL-6Rα^+/IL-8R^- HEK 293T cells", "T1 sequence (looked up)": "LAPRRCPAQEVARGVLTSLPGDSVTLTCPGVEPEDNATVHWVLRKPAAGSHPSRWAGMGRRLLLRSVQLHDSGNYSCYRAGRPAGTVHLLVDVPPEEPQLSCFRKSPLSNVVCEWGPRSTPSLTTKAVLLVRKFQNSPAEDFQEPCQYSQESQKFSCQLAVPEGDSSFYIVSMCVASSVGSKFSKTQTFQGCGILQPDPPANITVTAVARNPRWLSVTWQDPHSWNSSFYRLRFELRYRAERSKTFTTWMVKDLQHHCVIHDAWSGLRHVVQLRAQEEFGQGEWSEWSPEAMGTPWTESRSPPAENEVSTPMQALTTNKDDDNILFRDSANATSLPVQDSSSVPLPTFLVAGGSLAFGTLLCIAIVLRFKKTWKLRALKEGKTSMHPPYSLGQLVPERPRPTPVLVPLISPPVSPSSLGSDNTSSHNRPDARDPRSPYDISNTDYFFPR", "experiment": "flow cytometry binding titration on IL-6R+/IL-8R- HEK 293T cells, detected with FITC anti-human IgG1", "method": "(§1) HEK 293T cells were cultured in Dulbecco's modified Eagle's medium (DMEM, Mediatech) supplemented with 10% (Hyclone), 2 mM L-glutamine and 100 U/mL penicillin-streptomycin (Gibco). For surface binding assays, IL-6Rα⁺/IL-8R⁻, IL-6Rα⁻/IL-8R⁺, IL-6Rα⁺/IL-8R⁺, and […] HEK 293T cells were trypsinized for detachment, resuspended in PBSA, and then aliquoted into 96-well plates (1×10⁵ cells per well). Cells were incubated with titrations of various monoclonal or bispecific antibodies for 2 hr at 4° C. with rotation. Cells were then washed and incubated with a 1:50 dilution of fluorescein isothiocyanate (FITC)-conjugated anti-human IgG1 antibody (Sigma-Aldrich, Clone 8c/6-39) in PBSA for 15 min at 4° C. After a final wash, cells were resuspended in PBSA and analyzed on a CytoFLEX flow cytometer (Beckman Coulter). Binding isotherms were fitted to a first-order logistic model and KD values were calculated using GraphPad Prism data analysis software. Mean fluorescence intensity (MFI) of unstimulated cells was subtracted. […]\n(§2) To determine whether engineered bispecific binding agents BS1 and BS2 specifically engage target antigens in a physiologically relevant context, antibody binding to IL-6Rα⁺/IL-8R⁻, IL-6Rα⁻/IL-8R⁺, IL-6Rα⁺/IL-8R⁺, and IL-6Rα⁻/IL-8R⁻ lentivirally transduced HEK 293T cells was measured via flow cytometry. […]"}, "[2]": {"biological_target": "T2, IL-8RB expressed on lentivirally transduced HEK 293T cells (UniProt P25025 1-360, limits assumed)", "T2 construct": "whole, on cells; also called IL-8R^+ cells; IL-6Rα^-/IL-8R^+ HEK 293T cells", "T2 sequence (looked up)": "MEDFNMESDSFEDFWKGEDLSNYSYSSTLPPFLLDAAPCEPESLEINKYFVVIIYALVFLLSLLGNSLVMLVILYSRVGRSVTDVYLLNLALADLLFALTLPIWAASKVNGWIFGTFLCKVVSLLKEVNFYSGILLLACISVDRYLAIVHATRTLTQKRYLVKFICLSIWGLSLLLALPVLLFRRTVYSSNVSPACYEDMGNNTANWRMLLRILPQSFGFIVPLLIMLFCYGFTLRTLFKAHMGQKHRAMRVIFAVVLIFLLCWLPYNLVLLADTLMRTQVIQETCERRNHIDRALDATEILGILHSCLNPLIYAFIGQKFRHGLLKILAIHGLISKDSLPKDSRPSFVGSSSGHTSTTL", "experiment": "flow cytometry titration on IL-6Rα+/IL-8R+ HEK 293T cells; IL-6Rα+/IL-8R+ 293T cells (FIG. 7C)", "method": "as §1, §2"}, "[3]": {"biological_target": "T2, IL-8RB expressed on lentivirally …", "experiment": "competition with 400 nM His-tagged IL-8 on IL-6Rα-/IL-8R+ HEK 293T cells, flow cytometry", "method": "IL-6Rα⁺/IL-8R⁻ and IL-6Rα⁻/IL-8R⁺ HEK 293T cells were cultured as previously described, and were trypsinized, resuspended in PBSA, and aliquoted into 96-well plates (2×10⁵ cells per well). IL-6Rα⁺/IL-8R⁻ 293T cells were incubated with titrations of various monoclonal or bispecific antibodies in the presence of saturating concentration of biotinylated IL-6 (100 nM) (Acro Biosystem, cat #: IL6-H8218-25UG) for 2 hr at 4° C. with rotation. Cells were then washed and incubated with 1:200 dilution of Alexa Fluor 647-conjugated streptavidin (Fisher Scientific, cat #: S21374) in PBSA for 15 min at 4° C. After a final wash, cells were resuspended in PBSA and analyzed on a CytoFLEX flow cytometer (Beckman Coulter). Curves were fitted to a first-order logistic model and IC₅₀ values were calculated using GraphPad Prism data analysis software. Mean fluorescence intensity (MFI) of unstimulated cells was subtracted. Similarly, IL-6Rα⁻/IL-8R⁺ 293T cells were incubated with titrations of various monoclonal or bispecific antibodies with saturating concentration of His-tagged IL-8 (400 nM) (Sino Biological, cat #: 10098-H08Y-100) for 2 hr at 4° C. with rotation. […] After a final wash, cells were resuspended in PBSA and analyzed on a CytoFLEX flow cytometer (Beckman Coulter). Curves were fitted to a first-order logistic model and IC₅₀ values were calculated using GraphPad Prism data analysis software. […]"}, "[4]": {"biological_target": "T2, IL-8RB expressed on lentivirally …", "experiment": "flow cytometry binding titration on IL-6R-/IL-8R+ HEK 293T cells, detected with FITC anti-human IgG1", "method": "as §1, §2"}, "[5]": {"biological_target": "T3, human IL-6Rα extracellular domain (ECD), residues 89-303 of the mature protein, with C-terminal biotin … (human, UniProt P08887 108-322, biotinylated with BirA ligase on the biotin acceptor peptide)", "T3 construct": "range 89-303; The range 89-303 counts on the mature protein, not on the precursor; Any linkers between the ECD, BAP and His tag are not described; also called IL-6Rα ECD; recombinant IL-6Rα", "T3 sequence": "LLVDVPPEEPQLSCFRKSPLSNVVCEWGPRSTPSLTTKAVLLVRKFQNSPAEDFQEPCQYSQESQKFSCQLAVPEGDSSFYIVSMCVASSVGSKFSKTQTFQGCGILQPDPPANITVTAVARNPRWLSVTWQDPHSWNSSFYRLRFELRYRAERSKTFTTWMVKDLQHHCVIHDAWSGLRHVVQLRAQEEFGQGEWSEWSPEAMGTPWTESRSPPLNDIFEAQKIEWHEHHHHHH", "experiment": "equilibrium bio-layer interferometry titration, biotinylated human IL-6Rα ECD immobilized on streptavidin tips", "method": "Biotinylated human IL-6Rα ECD was immobilized to streptavidin-coated tips for analysis on an Octet® Red96 BLI instrument (ForteBio). Less than 5 signal units (nm) of receptor was immobilized to minimize mass transfer effects. Tips were exposed to serial dilutions of the anti-IL-6R antibody tocilizumab, the anti-IL-8R antibody 10H2, BS1, or BS2 in a 96-well plate for 300 s and dissociation was measured for 600 s. Surface regeneration for all interactions was conducted using 15 s exposure to 0.1 M glycine pH 3.0. Experiments were carried out in PBSA (phosphate-buffered saline [PBS] pH 7.3 plus 0.1% bovine serum albumin [BSA, Thermo]) at 25° C. Data was visualized and processed using the Octet® Data Analysis software version 7.1 (ForteBio). Equilibrium titration curve fitting and equilibrium dissociation constant (KD) value determination was implemented in GraphPad Prism software using a first-order logistic model. Experiments were reproduced two times with similar results.\nTo confirm functionality of our bispecific agents, antibodies were titrated against recombinant IL-6Rα via BLI. […] Moreover, both tocilizumab-containing engineered bispecific binding agents also bound IL-6Rα (FIG. 5)."}},
  "data": [
    {"binder": "B1", "values": [
      {"measurement": "binding result", "setting": "[1]", "result": "no binding (tested: 1e-6 M)"},
      {"measurement": "Kd", "setting": "[2]", "result": 4.1, "unit": "nM"},
      {"measurement": "IC50", "setting": "[3]", "result": 22, "unit": "nM"},
      {"measurement": "EC50 (read off the curve)", "setting": "[4]", "result": "~4", "unit": "nM"},
      {"measurement": "binding result", "setting": "[5]", "result": "no binding (tested: about 5e-7 M)"}
    ]}
  ]
}
